Values quoted from earlier work, collected in publication PMC10364474.
pKd: −log10 of the molar value.

Target: integrin α5β1 (Homo sapiens) (UniProt P08648)
UniProt P08648, sequence (P08648 42-995, chain 1 of 2): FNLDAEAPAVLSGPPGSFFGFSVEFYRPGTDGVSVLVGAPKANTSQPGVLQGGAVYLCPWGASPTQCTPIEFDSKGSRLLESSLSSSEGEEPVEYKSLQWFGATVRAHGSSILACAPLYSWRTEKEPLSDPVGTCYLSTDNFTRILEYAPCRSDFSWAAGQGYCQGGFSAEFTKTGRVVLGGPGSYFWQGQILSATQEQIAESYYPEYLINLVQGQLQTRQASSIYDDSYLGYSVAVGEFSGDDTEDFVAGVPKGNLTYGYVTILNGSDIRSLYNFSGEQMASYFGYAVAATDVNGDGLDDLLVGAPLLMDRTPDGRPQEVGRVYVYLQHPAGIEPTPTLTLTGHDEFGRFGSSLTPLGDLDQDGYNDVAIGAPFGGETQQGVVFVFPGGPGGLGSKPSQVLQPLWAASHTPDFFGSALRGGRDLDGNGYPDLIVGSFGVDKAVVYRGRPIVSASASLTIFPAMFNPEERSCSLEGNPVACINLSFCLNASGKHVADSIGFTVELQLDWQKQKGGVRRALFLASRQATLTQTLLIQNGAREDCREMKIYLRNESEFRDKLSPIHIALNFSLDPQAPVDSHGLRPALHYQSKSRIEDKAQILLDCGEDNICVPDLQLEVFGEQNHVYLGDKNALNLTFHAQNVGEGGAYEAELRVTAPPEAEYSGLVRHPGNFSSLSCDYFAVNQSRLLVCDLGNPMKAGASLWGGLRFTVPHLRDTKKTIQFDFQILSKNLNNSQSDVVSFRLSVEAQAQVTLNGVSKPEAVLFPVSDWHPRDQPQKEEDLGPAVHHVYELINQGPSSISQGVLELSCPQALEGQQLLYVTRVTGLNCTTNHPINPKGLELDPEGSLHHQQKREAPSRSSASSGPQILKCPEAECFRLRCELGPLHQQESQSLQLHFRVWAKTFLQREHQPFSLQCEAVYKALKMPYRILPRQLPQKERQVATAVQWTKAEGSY
UniProt P08648, sequence (P05556 21-728, chain 2 of 2, further chain): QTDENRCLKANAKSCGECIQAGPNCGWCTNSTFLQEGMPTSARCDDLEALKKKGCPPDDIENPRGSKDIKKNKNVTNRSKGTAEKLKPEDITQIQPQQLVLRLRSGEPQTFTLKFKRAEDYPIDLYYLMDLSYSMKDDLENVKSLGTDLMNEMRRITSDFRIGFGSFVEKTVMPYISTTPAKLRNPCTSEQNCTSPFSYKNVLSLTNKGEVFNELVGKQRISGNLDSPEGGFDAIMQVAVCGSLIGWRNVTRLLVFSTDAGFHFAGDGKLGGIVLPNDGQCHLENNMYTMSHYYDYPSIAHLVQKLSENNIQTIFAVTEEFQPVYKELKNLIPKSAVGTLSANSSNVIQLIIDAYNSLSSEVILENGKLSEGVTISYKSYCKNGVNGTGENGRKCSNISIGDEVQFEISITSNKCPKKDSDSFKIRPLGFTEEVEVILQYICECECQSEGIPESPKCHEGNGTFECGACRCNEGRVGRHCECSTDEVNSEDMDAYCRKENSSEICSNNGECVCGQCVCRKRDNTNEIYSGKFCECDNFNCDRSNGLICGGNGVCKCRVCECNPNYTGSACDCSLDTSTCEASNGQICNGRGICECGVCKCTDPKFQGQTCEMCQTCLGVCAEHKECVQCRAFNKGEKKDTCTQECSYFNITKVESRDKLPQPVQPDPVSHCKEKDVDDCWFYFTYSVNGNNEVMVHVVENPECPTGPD

pKd: 7.19
Substance: Fibrinogen alpha chain RGD 572-574 (from UniProt P02671)
